Two substances from patent publication US20180201681A1 can be followed below.

In test [1] the target is human CD83 on the cell surface (KM-H2, L428, FDCP1 and BB88 cells transfected with full length human CD83) (human) (UniProt Q01151). As to the kind of experiment: competition by flow cytometry on KM-H2 cells, antibodies added at the same time; reduction of the 3C12-RPE signal in the presence of HB15a-FITC. A general note: Flow cytometry measures light scatter and fluorescence of single cells or particles in a stream.

The target is the same in test [2]. As to the kind of experiment: flow cytometry on the CD83+ cell line KM-H2, background control.

Chain of human CD83 on the cell surface (KM-H2, L428, FDCP1 and BB88 cells transfected with full length human CD83) (human) (Q01151 20-205): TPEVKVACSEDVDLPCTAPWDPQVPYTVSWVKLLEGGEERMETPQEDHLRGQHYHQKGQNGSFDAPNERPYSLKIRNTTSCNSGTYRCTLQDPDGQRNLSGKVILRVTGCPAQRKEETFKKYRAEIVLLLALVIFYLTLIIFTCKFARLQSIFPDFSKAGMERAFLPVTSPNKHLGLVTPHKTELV

For “HB15a (commercial anti-human CD83 mAb, Immunotech) (antibody)”, the Reduction in 3C12 MFI (%) in test [1] came out at 24.7%.

In turn, isotype control (human IgG1) (antibody) registered an MFI in test [2] of 335 MFI.
